Assay results from patent US20250051471A1 (WILLIAM ROBERT ARATHOON LIVING TRUST DATED AUGUST 29 2016, published 2025).
Changes are numbered by the printed parent chain.

B1: anti-CD47 monoclonal antibody 5F9 (antibody, IgG1, V domains shown)
VH: QVQLVQSGAEVKKPGASVKVSCKASGYTFTNYNMHWVRQAPGQRLEWMGTIYPGNDDTSYNQKFKDRVTITADTSASTAYMELSSLRSEDTAVYYCARGGYRAMDYWGQGTLVTVSS
VL: DIVMTQSPLSLPVTPGEPASISCRSSQSIVYSNGNTYLGWYLQKPGQSPQLLIYKVSNRFSGVPDRFSGSGSGTDFTLKISRVEADVGVYYCFQGSHVPYTFGQGTKLEIK
notes: also called KT14; 5F9 KT14 mAb
B2: 15D3hmz16-1/KT14/MRK16v4a1 (bispecific antibody, V domains shown)
VH 1: EVQLVESGGVVVQPGGSLRLSCAASGFTFSRYTMSWVRQAPGKGLEWVATISSGGGNTYYPDSVKGRFTVSRDNSKNSLYLQMNSLRTEDTALYYCARYYRYDAWFAYWGQGTLVTVSS
VH 2: B1 VH
VL: DIVMTQTPLSSPVTLGQPASISCRSSQSIVHSTGNTYLEWYQQKPGQPPRLLIYKISNRFSGVPDRFSGSGSGTDFTLKISRVEAEDVGVYYCFQASHFPRTFGQGTKLEIK
notes: Human IgG1/kappa bispecific with KK/DD charge-pair Fc; also called 15D3hmz16-1 KK/KT14 DD/MRK16v4a1 Bispecific; 15D316-1 DD/KT14 KK/MRK16v4a1 hmz LC
B3: 15D3hmz16-1/KT14/MRK16v4a12 (bispecific antibody, V domains shown)
VH 1: B2 VH 1
VH 2: B1 VH
VL: B2 VL with I56V
notes: Human IgG1/kappa bispecific
B4: 15D3hmz HIR2/KT14 KbR1/B1VL6/CDR3v2a (bispecific antibody, human IgG1, kappa)
heavy 1: EVQLVESGGVVVQPGGSLRLSCAASGFTFSRYTMSWVRQAPGKGLEWVATISSGGGNTYYPDSVKGRFTVSRDNSKNSLYLQMNSLRTEDTALYYCARYGAGDAWFAYWGQGTLVTVSSASTKGPSVFPLAPSSKSTSGGTAALGCLVKDYFPEPVTVSWNSGALTSGVHTFPAVLQSSGLYSLSSVVTVPSSSLGTQTYICNVNHKPSNTKVDKRVEPKSCDKTHTCPPCPAPELLGGPSVFLFPPKPKDTLMISRTPEVTCVVVDVSHEDPEVKFNWYVDGVEVHNAKTKPREEQYNSTYRVVSVLTVLHQDWLNGKEYKCKVSNKALPAPIEKTISKAKGQPREPQVCTLPPSREEMTKNQVSLSCAVKGFYPSDIAVEWESNGQPENNYKTTPPVLDSDGSFVLVSKLTVDKSRWQQGNVFSCSVMHEALHNHYTQKSLSLSPG
heavy 2: not shown
light: DIVMTQSPLSLPVTPGEPASISCRSSQSLVHSNGNTYLEWYLQKPGQSPQLLIYKVSNRFSGVPDRFSGSGSGTDFTLKISRVEAEDVGVYYCFQGSHFPRTFGQGTKLEIKRTVAAPSVFIFPPSDEQLKSGTASVVCLLNNFYPREAKVQWKVDNALQSGNSQESVTEQDSKDSTYSLSSTLTLSKADYEKHKVYACEVTHQGLSSPVTKSFNRGEC
notes: Humanized ABCB1 x CD47 IgG1 bispecific with a common light chain
B5: 15D3 hmz HIR2/KT14 KBR1/MRK16v4b (bispecific antibody, IgG1)
heavy 1: B4 heavy 1
heavy 2: not shown
light: B2 VL
notes: Humanized ABCB1 x CD47 IgG1 bispecific with a common light chain; the kappa constant region comes from the general cloning description; not shown: human kappa constant light chain
B6: 15D3VHhuIgG1DD/KT14KK/B1.89v1.huL1(KV2)hmz (bispecific antibody)
heavy 1: not shown
heavy 2: not shown
light: B4 light with S28T, L29I, N58K, G96A
notes: also called KB1-1421; 15D3VHhuIgG1DD/KT14KK/B1.89v1.huL1(KV2)hmzLC
B7: 15D3 hmz HIR2/KT14 KbR1/B1.89v1.huL1(KV2) (bispecific antibody, human IgG1, kappa)
heavy 1: B4 heavy 1
heavy 2: not shown
light: B4 light with S28T, L29I, N58K, G96A
notes: as for B4
B8: ABCB1XCD47 KBisP1.1 (15D3 HC KK/KT14 HC DD/MRK16 LC) (bispecific antibody, human IgG1, kappa)
heavy 1: not shown
heavy 2: not shown
light: DVLMTQTPVSLSVSLGDQASISCRSSQSIVHSTGNTYLEWYLQKPGQSPKLLIYKISNRFSGVPDRFSGSGSGTDFTLKISRVEAEDLGVYYCFQASHFPRTFGGGTKLEIKRTVAAPSVFIFPPSDEQLKSGTASVVCLLNNFYPREAKVQWKVDNALQSGNSQESVTEQDSKDSTYSLSSTLTLSKADYEKHKVYACEVTHQGLSSPVTKSFNRGEC
notes: also called KNJYBisP1.1
B9: KB1-1401 (bispecific antibody, human IgG1, kappa)
heavy chain 1 (anti-ABCB1, DD): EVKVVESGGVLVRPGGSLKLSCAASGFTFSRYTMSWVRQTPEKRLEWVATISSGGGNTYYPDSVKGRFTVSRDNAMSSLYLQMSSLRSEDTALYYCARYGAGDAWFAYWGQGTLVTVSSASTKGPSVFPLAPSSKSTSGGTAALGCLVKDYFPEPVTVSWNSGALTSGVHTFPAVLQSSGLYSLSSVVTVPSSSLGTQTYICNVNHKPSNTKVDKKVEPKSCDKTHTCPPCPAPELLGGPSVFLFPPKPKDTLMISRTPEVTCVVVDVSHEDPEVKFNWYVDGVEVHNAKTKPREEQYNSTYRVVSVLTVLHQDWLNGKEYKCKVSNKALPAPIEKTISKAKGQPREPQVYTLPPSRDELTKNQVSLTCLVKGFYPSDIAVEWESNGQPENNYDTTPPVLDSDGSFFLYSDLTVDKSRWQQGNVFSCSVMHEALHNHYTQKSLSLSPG
heavy chain 2 (anti-CD47, KK): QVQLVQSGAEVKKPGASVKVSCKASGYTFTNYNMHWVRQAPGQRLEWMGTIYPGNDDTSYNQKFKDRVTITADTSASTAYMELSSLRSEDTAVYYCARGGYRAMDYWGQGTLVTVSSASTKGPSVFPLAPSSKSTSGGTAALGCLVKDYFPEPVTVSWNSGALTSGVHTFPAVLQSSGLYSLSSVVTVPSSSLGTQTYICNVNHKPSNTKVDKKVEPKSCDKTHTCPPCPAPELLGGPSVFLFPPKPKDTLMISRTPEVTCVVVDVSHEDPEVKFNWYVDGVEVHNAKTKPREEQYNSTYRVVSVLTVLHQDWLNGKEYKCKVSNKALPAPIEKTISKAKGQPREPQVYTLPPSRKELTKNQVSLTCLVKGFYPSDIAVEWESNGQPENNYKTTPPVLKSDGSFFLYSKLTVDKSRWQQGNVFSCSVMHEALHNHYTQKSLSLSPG
light chain: B8 light
notes: also called 15D3DD KT14KK MRK16
B10: 15D3 hmz DD/KT14 KK/MRK16 hmz bispecific antibody (bispecific antibody, human IgG1)
heavy 1: not shown
heavy 2: not shown
VL: DIVMTQTPLSSPVTLGQPASISCRSSQSIVHSTGNTYLEWYQQRPGQPPRLLIYKISNRFSGVPDRFSGSGAGTDFTLKISRVEAEDVGVYYCFQASHFPRTFGGGTKLEIKR
notes: the general methods state a human kappa constant region

How the values were obtained:
[1] = molecular target: T1, cynomolgus CD47 on red blood cells (cynomolgus, UniProt A0A5F8AK49 19-323 (rhesus entry)); experiment: flow cytometry on cynomolgus RBC, donor Cy747
T1 construct: whole, on cells; The assay target is the red blood cell; also called cynomolgus Red Blood Cells

[2] = molecular target: T2, human CD47 on cells (human, UniProt Q08722 19-323); experiment: flow cytometry on human RBC, donor D835
T2 construct: also called hCD47; CD47 antigen

[3] = molecular target: T1, cynomolgus CD47 on red blood cells; experiment: flow cytometry on cynomolgus RBC, donor Cy744
[4] = molecular target: T3, recombinant extracellular domain of human CD47-Fc fusion protein (human, UniProt Q08722 19-139); experiment: ELISA on plate-coated recombinant human CD47 extracellular domain-Fc, A450; x axis printed as log10 values under the unit nM
T3 construct: extracellular domain; also called huCD47 ECD; CD47-Fc fusion protein (R&D systems); not shown: Fc part of the bought fusion protein; not described

[5] = molecular target: T2, human CD47 on cells; experiment: flow cytometry on human RBC, donor D834
[6] = molecular target: T1, cynomolgus CD47 on red blood cells; experiment: flow cytometry on cynomolgus RBC, donor Cy746
[7] = molecular target: T1, cynomolgus CD47 on red blood cells; experiment: flow cytometry on cynomolgus RBC, donor Cy745
[8] = molecular target: T2, human CD47 on cells; experiment: flow cytometry on human RBC, donor D837
[9] = molecular target: T2, human CD47 on cells; experiment: flow cytometry on human RBC, donor D836
[10] = molecular target: T4, human ABCB1 on cells (human, UniProt P08183 1-1280); experiment: flow cytometry, DX5/ADR CD47 WT cells (carry both ABCB1 and CD47), % positive cells
T4 construct: whole, on cells; also called MDR1; Pgp

[11] = molecular target: T4, human ABCB1 on cells; experiment: flow cytometry, DX5 CD47 KO cells, % positive cells
[12] = molecular target: T2, human CD47 on cells; experiment: receptor occupancy assay on A2780ADR cells (carry both ABCB1 and CD47), flow cytometry; free CD47 detected with Alexa 647 anti-hCD47 CC2C6 (competitor), direct binding with PE anti-human IgG Fc
[13] = molecular target: T2, human CD47 on cells; experiment: flow cytometry, DX5 B1 KO (ABCB1 knock-out) cells, % positive cells
[14] = molecular target: T4, human ABCB1 on cells; experiment: flow cytometry, DX5 CD47 knock-out cells ('DX5 KT14 KO'), MFI
[15] = molecular target: T4, human ABCB1 on cells; experiment: receptor occupancy assay on A2780ADR cells, curve 'BiS-Direct Binding' (PE anti-human IgG Fc); the cells carry both antigens, the target is named after the receptor whose free signal falls in the same panel
[16] = molecular target: T4, human ABCB1 on cells; experiment: flow cytometry, DX5 WT cells (carry both ABCB1 and CD47), MFI
[17] = molecular target: T2, human CD47 on cells; experiment: flow cytometry on red blood cells (sentence follows Table 9, human RBC)
[18] = molecular target: T2, human CD47 on cells; experiment: flow cytometry, DX5 B1 KO (ABCB1 knock-out) cells, % positive cells; remark: listed apart in the source
[19] = molecular target: T2, human CD47 on cells; experiment: receptor occupancy assay on A2780ADR cells, curve 'BiS-Direct Binding' (PE anti-human IgG Fc); the cells carry both antigens, the target is named after the receptor whose free signal falls most in the same panel
[20] = molecular target: T4, human ABCB1 on cells; experiment: flow cytometry, DX5 CD47 KO cells, % positive cells; remark: listed apart in the source
[21] = molecular target: T4, human ABCB1 on cells; experiment: receptor occupancy assay on A2780ADR cells, curve 'BiS-Direct Binding' (PE anti-human IgG Fc); the cells carry both antigens, the target is named after the receptor whose free signal falls in the same panel; remark: listed apart in the source

| Binder | % Positive [1] [%] | % Positive [2] [%] | % Positive [3] [%] | % Positive [5] [%] | % Positive [6] [%] | % Positive [7] [%] | % Positive [8] [%] | % Positive [9] [%] | EC50 (read off the curve) [14] [nM] | EC50 (read off the curve) [16] [nM] | other results |
| --- | --- | --- | --- | --- | --- | --- | --- | --- | --- | --- | --- |
| B1 | 99 | 98.9 | 99 | 99.1 | 99.4 | 98.8 | 99.1 | 98.9 | – | – | EC50 (read off the curve) [4]: ~0.003 nM |
| B2 | 5.7 | – | 0.4 | – | 1.5 | 0.4 | – | – | – | – | – |
| B3 | – | – | – | 0.4 | – | – | – | – | – | – | – |
| B4 | – | – | – | – | – | – | – | – | – | – | EC50 (read off the curve) [10]: ~0.8 nM; EC50 (read off the curve) [11]: ~5 nM; binding result [12]: binds |
| B5 | – | – | – | – | – | – | – | – | ~20 | ~10 | binding result [13]: binds; EC50 (read off the curve) [15]: ~200 nM |
| B6 | 26.5 | 0.4 | 0.7 | 0.7 | 15.1 | 2.2 | 0.4 | 0.2 | – | – | binding result [17]: no binding |
| B7 | 74.5 | 1.4 | 7.9 | 2 | 57.7 | 10.6 | 1.6 | 1.1 | ~50 | ~30 | EC50 (read off the curve) [18]: ~30 nM; EC50 (read off the curve) [19]: ~200 nM; EC50 (read off the curve) [20]: ~0.4 nM |
| B8 | 3.7 | 0.4 | 0.5 | 0.4 | 2 | 0.7 | 0.5 | 0.3 | ~30 | ~10 | – |
| B9 | – | – | – | – | – | – | – | – | – | – | binding result [13]: no binding (tested: about 660 nM); EC50 (read off the curve) [21]: ~200 nM |
| B10 | – | – | – | – | – | – | – | – | – | – | EC50 (read off the curve) [4]: ~0.08 nM |
